Paper PMC6857237, “Design and structural characterisation of olfactomedin-1 variants as tools for functional studies” (BMC Molecular and Cell Biology, 2019)

Target: the molecule itself
Test: SEC-MALS; analytical Superdex200 Increase 10/300, room temperature, SEC buffer (150 mM NaCl, 2 mM CaCl2, 20 mM HEPES pH 7.5), 0.5 mL/min; aldolase as calibration standard

B1: Olfm1^coil-Olf (olfactomedin-1 part of the coiled coil plus Olfactomedin domain, residues 212–478), disulfide-linked dimer (domain or fragment, mouse (Mus musculus))
chain: GSSNLEERLRACMQKLACGKLTGISDPVTVKTSGSRFGSWMTDPLAPEGDNRVWYMDGYHNNRFVREYKSMVDFMNTDNFTSHRLPHPWSGTGQVVYNGSIYFNKFQSHIIIRFDLKTEAILKTRSLDYAGYNNMYHYAWGGHSDIDLMVDENGLWAVYATNQNAGNIVISKLDPVSLQILQTWNTSYPKRSAGEAFIICGTLYVTNGYSGGTKVHYAYQTNASTYEYIDIPFQNKYSHISMLDYNPKDRALYAWNNGHQTLYNVTLFHAAA
modifications: N-linked glycans (8 per dimer, GntI-/- cells); inter-chain disulfide Cys221-Cys221; for crystallisation deglycosylated with Endo-H
notes: N-terminal residues left by the restriction site in the mature protein; Olfactomedin-1 (Olfm1), mouse, BMZ isoform cDNA as template, residues 212-478 (UNIPROT numbering); C-terminal VIRSDEL not included; includes Cys221; Only about a third of the expressed sample formed the disulfide-linked dimer; the dimer fraction was isolated by SEC and used; Secreted with a cystatin signal peptide (not in the …)
  stoichiometry N: 2
